How the values were obtained:
[1] = molecular target: membrane-bound endogenous human CEACAM5 and CEACAM6 on BxPC3 cells; assay: flow cytometry on BxPC3 cells with against without 100 nM soluble CEACAM6
[2] = molecular target: membrane-bound endogenous human CEACAM5 and CEACAM6 on A549 cells; assay: flow cytometry on A549 cells (printed over the panel: CEACAM5-, CEACAM6+), MFI
[3] = molecular target: membrane-bound endogenous human CEACAM5 and CEACAM6 on LS 174T cells; assay: flow cytometry on LS174T cells with against without 100 nM soluble CEACAM6

fold change of EC50 at the presence of 100 nM soluble protein [1]: 4.1 fold
EC50 (read off the curve) [2]: 0.1 nM
fold change of EC50 at the presence of 100 nM soluble protein [3]: 6.9 fold
B1: PR303563 (Tinurilimab) (antibody, human IgG2, kappa, V domains shown)
VH: QVTLRESGPALVKPTQTLTLTCTFSGFSLSTYGIGVGWIRQPPGKALEWLAHIWWNDNKYYSTSLKTRLTISKDTSKNQVVLTMTNMDPVDTATYYCARISLPYFDYWGQGTTLTVSS
VL: DIQLTQSPSFLSASVGDRVTITCKASQNVGTAVAWYQQKPGKAPKLLIYSASNRYTGVPSRFSGSGSGTEFTLTISSLQPEDFATYYCQQYSSYPLTFGGGTKVEIKR

Source: US20260258125A1
